{"source": "paper PMC9029856", "about": "“Impact of Different [Tc(N)PNP]-Scaffolds on the Biological Properties of the Small cRGDfK Peptide: Synthesis, In Vitro and In Vivo Evaluations” (Molecules, 2022)", "key": {"[1]": {"parameters": "species or system Sprague Dawley rats", "conditions": "rat, in vivo, iv, 15 uCi/100 uL", "description": "Pharmacokinetics and metabolism.\nFemale Sprague Dawley rats weighing 180–200 g were anesthetized with an intraperitoneal injection of a mixture of Zoletil (40 mg/kg) and xylazine (2 mg/kg). A jugular vein was surgically exposed, and the solution containing the radiolabeled peptide was injected (15 µCi/100 µL). The rats (n = 3) were scarified by cervical dislocation at different times after injection. The blood was withdrawn from the heart with a syringe immediately after death and quantified. Organs were excised, rinsed in saline, weighed, and the activity was counted in a NaI counter. The results were expressed as the percentage of injected activity per gram of tissue (%IA/g) to be able to compare our results with those reported in the literature."}, "serum proteins": {"system": "serum proteins", "format": "in vitro ADME", "description": "Thus, to have some predictive indications of the metabolic outcome of our compounds, the binding to serum proteins and the enzymatic biotransformation of ^99mTc1–3 in blood and tissue homogenates were assessed in vitro by incubating the purified compounds at 37 °C in human and mouse sera as well as in murine liver and kidney homogenates.\nProtein Binding. The affinity of the ^99mTc(N) complexes toward the serum proteins was evaluated by chromatographic methods.\nUpon incubation, 25 µL of each sample was withdrawn and loaded on a pre-spun (735× g for 2 min) Sephadex G-50 mini-column. The column was centrifuged at 735 × g for 1 min. The collected eluate and the column were counted in a NaI-scintillation counter. The protein-bound complex was calculated as the percentage of the total activity."}, "[2]": {"system": "M21 (αvβ3-positive) and M21L (αvβ3-negative) melanoma tumors", "format": "in vivo, NSG mice", "conditions": "120 min p.i.", "description": "In vivo tumor uptake. The in vivo integrin targeting properties of the [^99mTcN(PNP)]-labeled peptide were evaluated in M21 (integrin-positive) and M21L (integrin-negative) melanoma-bearing mice by comparing the percentage of tumor uptake of the three compounds in tumors and the respective target-to-non-target ratios. Biodistribution data outlined some differences in organ uptake compared with those attained in rats at the same injection time because the rate of metabolism is different in each animal species. […] The high renal uptake of radiotracers is partially due to their rate of excretion as well as to a specific uptake by integrins expression in the kidneys; for ^99mTc3, the M21-to-kidney ratio was 1.37.\nHuman melanoma M21(αvβ3-positive) were injected subcutaneously (s.c. 1 × 10^6 cells) in the right flank of six week-old male NSG mice (Charles River Laboratories). As a negative control, M21L (αvβ3-negative) were inoculated s.c. (1 × 10^6 cells) in the left flank of the same mice. Fifteen days after the inoculation, when the tumors are palpable (5–3 mm), the mice were injected in the tail vein with the selected radiolabeled peptide (20 µCi/100 µL of PBS). A group of six animals was sacrificed at 120 min p.i. by CO2 inhalation. A sample of blood was collected and tumors and normal tissues of interest were dissected, rinsed to remove the excess of blood, weighted, and their radioactivity measured using a NaI counter. Results are expressed as the percentage of injected activity per gram (% IA/g) and tumor-to-organ ratios were calculated."}, "[3]": {"system": "receptor-negative human melanoma M21L cells", "experiment": "Cell uptake and internalization in M21L cells", "format": "cell-based", "conditions": "negative M21L cell line, 37 °C, 90 min", "description": "Cell uptake and internalization studies were performed on receptor-positive human melanoma M21 (expressing high levels of αvβ3 integrin and moderate level of integrin αvβ5), human breast cancer MCF7 (exclusively expressing αvβ5), and receptor-negative human melanoma M21L cell lines. The expression of αvβ3 and αvβ5 by cells was already evaluated by flow cytometry (Table 2). The stability of each radiolabeled peptide in the culture media before and after cell exposure was assessed.\nExperiments were conducted in suspension at 37 °C. The working conditions were set up to avoid cell damage and/or death. With the use of these information, the cells were pre-incubated in sterile glass tubes at 37 °C for 10 min, in the presence or not of cRGDfK pentapeptide (50 µL; 1.65 mM).\nThen, 1 mL of the cell suspension (1 × 10^6 cells/mL) was incubated with intermittent agitation with 10 µL (10 µCi) of ^99mTc1–3. At 90 min, the cells were moved in Eppendorf microcentrifuge tubes (1.5 mL) and the incubation was interrupted by centrifugation (3000 rpm for 5 min at 10 °C). The supernatant (S1) was separated from the pellet. The cell pellet was treated 10 min at room temperature with saline acetate buffer (CH3COOH 0.2M/NaCl 0.5 M) to remove the membrane-bound compound. After centrifugation (3000 rpm for 10 min at 10 °C), the supernatant (S2) was separated from the pellet (P1), and each fraction was collected, placed in a separated counting tube, and the activity was measured using a NaI counter (Cobra II, Packard) to estimate both the cell uptake and the internalized fraction.\nThe uptake of complexes was expressed as percentage cell uptake of the total activity on 10^6 cells (% cell uptake/10^6 cells).\nAll assessments were conducted in triplicate for three experiments."}}, "note": "Several values for one entry are separate records, joined by “and”; a condition that tells them apart may be missing. Equal values may be shown once. Read-outs that look alike come from different tables or passages of the source."}
{"substance": "[Tc(N)(H2NS-cRGDfK)(PNP3)]^+ [^99mTc1]", "values": [{"measurement": "Blood", "setting": "[1]; 0.5 h", "value": "0.81 ± 0.05", "unit": "%IA/g"}, {"measurement": "Heart", "setting": "[1]; 0.5 h", "value": "0.26 ± 0.05", "unit": "%IA/g"}, {"measurement": "Intestine", "setting": "[1]; 0.5 h", "value": "0.65 ± 0.16", "unit": "%IA/g"}, {"measurement": "Kidneys", "setting": "[1]; 0.5 h", "value": "2.71 ± 0.18", "unit": "%IA/g"}, {"measurement": "Liver", "setting": "[1]; 0.5 h", "value": "0.96 ± 0.10", "unit": "%IA/g"}, {"measurement": "Lungs", "setting": "[1]; 0.5 h", "value": "0.64 ± 0.09", "unit": "%IA/g"}, {"measurement": "Muscle", "setting": "[1]; 0.5 h", "value": "0.21 ± 0.09", "unit": "%IA/g"}, {"measurement": "Spleen", "setting": "[1]; 0.5 h", "value": "0.65 ± 0.09", "unit": "%IA/g"}, {"measurement": "Stomach", "setting": "[1]; 0.5 h", "value": "0.53 ± 0.07", "unit": "%IA"}, {"measurement": "Urine", "setting": "[1]; 0.5 h", "value": "27.2 ± 11.7", "unit": "%IA"}, {"measurement": "Blood", "setting": "[1]; 1 h", "value": "0.30 ± 0.04", "unit": "%IA/g"}, {"measurement": "Heart", "setting": "[1]; 1 h", "value": "0.15 ± 0.01", "unit": "%IA/g"}, {"measurement": "Intestine", "setting": "[1]; 1 h", "value": "0.60 ± 0.12", "unit": "%IA/g"}, {"measurement": "Kidneys", "setting": "[1]; 1 h", "value": "1.57 ± 0.13", "unit": "%IA/g"}, {"measurement": "Liver", "setting": "[1]; 1 h", "value": "0.75 ± 0.02", "unit": "%IA/g"}, {"measurement": "Lungs", "setting": "[1]; 1 h", "value": "0.43 ± 0.01", "unit": "%IA/g"}, {"measurement": "Muscle", "setting": "[1]; 1 h", "value": "0.13 ± 0.06", "unit": "%IA/g"}, {"measurement": "Spleen", "setting": "[1]; 1 h", "value": "0.51 ± 0.04", "unit": "%IA/g"}, {"measurement": "Stomach", "setting": "[1]; 1 h", "value": "0.41 ± 0.02", "unit": "%IA"}, {"measurement": "Urine", "setting": "[1]; 1 h", "value": "33.1 ± 5.6", "unit": "%IA"}, {"measurement": "Blood", "setting": "[1]; 2 h", "value": "0.09 ± 0.01", "unit": "%IA/g"}, {"measurement": "Heart", "setting": "[1]; 2 h", "value": "0.10 ± 0.02", "unit": "%IA/g"}, {"measurement": "Intestine", "setting": "[1]; 2 h", "value": "0.40 ± 0.07", "unit": "%IA/g"}, {"measurement": "Kidneys", "setting": "[1]; 2 h", "value": "0.92 ± 0.20", "unit": "%IA/g"}, {"measurement": "Liver", "setting": "[1]; 2 h", "value": "0.68 ± 0.06", "unit": "%IA/g"}, {"measurement": "Lungs", "setting": "[1]; 2 h", "value": "0.25 ± 0.03", "unit": "%IA/g"}, {"measurement": "Muscle", "setting": "[1]; 2 h", "value": "0.10 ± 0.06", "unit": "%IA/g"}, {"measurement": "Spleen", "setting": "[1]; 2 h", "value": "0.47 ± 0.04", "unit": "%IA/g"}, {"measurement": "Stomach", "setting": "[1]; 2 h", "value": "0.34 ± 0.04", "unit": "%IA"}, {"measurement": "Urine", "setting": "[1]; 2 h", "value": "54.3 ± 1.9", "unit": "%IA"}, {"measurement": "Blood", "setting": "[1]; 4 h", "value": "0.05 ± 0.01", "unit": "%IA/g"}, {"measurement": "Heart", "setting": "[1]; 4 h", "value": "0.08 ± 0.01", "unit": "%IA/g"}, {"measurement": "Intestine", "setting": "[1]; 4 h", "value": "0.38 ± 0.01", "unit": "%IA/g"}, {"measurement": "Kidneys", "setting": "[1]; 4 h", "value": "0.88 ± 0.09", "unit": "%IA/g"}, {"measurement": "Liver", "setting": "[1]; 4 h", "value": "0.66 ± 0.07", "unit": "%IA/g"}, {"measurement": "Lungs", "setting": "[1]; 4 h", "value": "0.16 ± 0.04", "unit": "%IA/g"}, {"measurement": "Muscle", "setting": "[1]; 4 h", "value": "0.06 ± 0.01", "unit": "%IA/g"}, {"measurement": "Spleen", "setting": "[1]; 4 h", "value": "0.45 ± 0.00", "unit": "%IA/g"}, {"measurement": "Stomach", "setting": "[1]; 4 h", "value": "0.29 ± 0.02", "unit": "%IA"}, {"measurement": "Urine", "setting": "[1]; 4 h", "value": "55.9 ± 7.1", "unit": "%IA"}, {"measurement": "% Protein Binding", "setting": "serum proteins", "value": "14.95 ± 1.95", "unit": "%"}, {"measurement": "M21/M21L ratio", "setting": "[2]", "value": 1.83}, {"measurement": "M21/blood ratio", "setting": "[2]", "value": 29.96}, {"measurement": "M21/kidneys ratio", "setting": "[2]", "value": 0.77}, {"measurement": "M21/liver ratio", "setting": "[2]", "value": 0.88}, {"measurement": "M21/lung ratio", "setting": "[2]", "value": 2.53}, {"measurement": "M21/muscle ratio", "setting": "[2]", "value": 9.15}, {"measurement": "M21L tumor uptake", "setting": "[2]; integrin-negative M21L control tumor", "value": "1.73 ± 0.19", "unit": "%IA/g"}, {"measurement": "M21 tumor uptake", "setting": "[2]; integrin-positive M21 xenograft", "value": "3.2 ± 0.6 %IA/g and 3.17 ± 0.60 %IA/g"}, {"measurement": "Blood", "setting": "[2]; tumor-bearing mice", "value": "0.07 ± 0.02", "unit": "%IA/g"}, {"measurement": "Heart", "setting": "[2]; tumor-bearing mice", "value": "0.47 ± 0.03", "unit": "%IA/g"}, {"measurement": "Intestine", "setting": "[2]; tumor-bearing mice", "value": "2.30 ± 0.10", "unit": "%IA/g"}, {"measurement": "Kidneys", "setting": "[2]; tumor-bearing mice", "value": "4.10 ± 0.37", "unit": "%IA/g"}, {"measurement": "Liver", "setting": "[2]; tumor-bearing mice", "value": "3.59 ± 0.31", "unit": "%IA/g"}, {"measurement": "Lungs", "setting": "[2]; tumor-bearing mice", "value": "1.25 ± 0.23", "unit": "%IA/g"}, {"measurement": "Muscle", "setting": "[2]; tumor-bearing mice", "value": "0.37 ± 0.04", "unit": "%IA/g"}, {"measurement": "Spleen", "setting": "[2]; tumor-bearing mice", "value": "1.61 ± 0.01", "unit": "%IA/g"}, {"measurement": "Stomach", "setting": "[2]; tumor-bearing mice", "value": "1.22 ± 0.15", "unit": "%IA"}, {"measurement": "cell uptake (sum of surface bound and internalized radioactivity)", "setting": "[3]", "value": "1.77 ± 0.20", "unit": "% cell uptake/10^6 cells"}]}
